Molecular target: T1, Recombinant human CD206 (MRC1/CD206) (human, UniProt P22897 19-1383)
T1 chain: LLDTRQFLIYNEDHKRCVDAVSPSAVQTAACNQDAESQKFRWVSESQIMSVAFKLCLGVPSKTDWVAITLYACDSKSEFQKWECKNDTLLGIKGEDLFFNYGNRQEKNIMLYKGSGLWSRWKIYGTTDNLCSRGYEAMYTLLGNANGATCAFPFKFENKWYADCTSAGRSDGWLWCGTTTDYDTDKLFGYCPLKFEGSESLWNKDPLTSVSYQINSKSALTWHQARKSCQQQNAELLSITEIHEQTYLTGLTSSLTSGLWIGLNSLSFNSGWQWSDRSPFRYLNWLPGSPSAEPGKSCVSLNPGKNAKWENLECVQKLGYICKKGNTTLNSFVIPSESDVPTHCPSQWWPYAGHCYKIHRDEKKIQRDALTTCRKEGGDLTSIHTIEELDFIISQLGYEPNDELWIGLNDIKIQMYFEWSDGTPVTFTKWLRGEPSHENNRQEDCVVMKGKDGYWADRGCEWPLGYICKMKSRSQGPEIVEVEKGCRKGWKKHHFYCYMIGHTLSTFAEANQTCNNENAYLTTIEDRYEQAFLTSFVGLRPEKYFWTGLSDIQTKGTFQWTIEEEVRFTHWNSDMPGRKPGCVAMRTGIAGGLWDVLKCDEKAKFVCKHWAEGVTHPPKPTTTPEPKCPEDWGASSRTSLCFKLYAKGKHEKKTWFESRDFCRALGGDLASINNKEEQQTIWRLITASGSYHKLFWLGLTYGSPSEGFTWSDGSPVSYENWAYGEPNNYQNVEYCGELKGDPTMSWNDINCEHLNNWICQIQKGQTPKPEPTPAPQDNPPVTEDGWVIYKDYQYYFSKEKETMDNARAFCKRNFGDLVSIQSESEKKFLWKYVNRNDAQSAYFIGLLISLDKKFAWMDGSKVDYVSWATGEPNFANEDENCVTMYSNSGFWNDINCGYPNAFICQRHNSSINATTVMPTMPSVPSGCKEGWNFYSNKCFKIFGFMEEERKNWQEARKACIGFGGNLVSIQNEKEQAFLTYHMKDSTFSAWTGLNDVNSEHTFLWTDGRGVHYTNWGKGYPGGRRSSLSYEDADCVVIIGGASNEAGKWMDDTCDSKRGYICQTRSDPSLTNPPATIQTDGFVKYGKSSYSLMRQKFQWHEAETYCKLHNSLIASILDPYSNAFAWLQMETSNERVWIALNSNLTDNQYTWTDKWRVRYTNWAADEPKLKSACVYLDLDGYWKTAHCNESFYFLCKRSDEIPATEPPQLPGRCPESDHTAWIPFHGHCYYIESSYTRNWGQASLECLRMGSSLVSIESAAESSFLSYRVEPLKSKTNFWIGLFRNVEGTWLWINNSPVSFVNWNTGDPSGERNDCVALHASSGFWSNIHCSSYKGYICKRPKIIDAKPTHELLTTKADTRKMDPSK
Assay: MST

Kd: 8.37 µM
Binder: KFRKAFKRFF [RP-182]
